Laboratory results published in paper PMC10397247.
Blank lines part the entries; values can stand above or below the binder they belong to.

Columns and labels:
O5-bH = molecular target: T1, O5-bH; experiment: two-hybrid library CCNG1;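 further: natural log of median RNA to DNA barcode read ratio; higher means stronger binding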
T1 chain: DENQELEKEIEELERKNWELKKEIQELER

O14-bH = molecular target: T2, O14-bH; experiment: two-hybrid library CCNG1;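 further: natural log of median RNA to DNA barcode read ratio; higher means stronger binding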
T2 chain: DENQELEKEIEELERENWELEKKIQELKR

O15-bH = molecular target: T3, O15-bH; experiment: two-hybrid library CCNG1;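 further: natural log of median RNA to DNA barcode read ratio; higher means stronger binding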
T3 chain: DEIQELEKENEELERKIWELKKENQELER

O16-bH = molecular target: T4, O16-bH; experiment: two-hybrid library CCNG1;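 further: natural log of median RNA to DNA barcode read ratio; higher means stronger binding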
T4 chain: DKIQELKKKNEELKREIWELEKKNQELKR

O3-bH = molecular target: T5, O3-bH; experiment: two-hybrid library CCNG1
T5 chain: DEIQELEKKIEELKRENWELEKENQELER

O12-bH = molecular target: T6, O12-bH; experiment: two-hybrid library CCNG1
T6 chain: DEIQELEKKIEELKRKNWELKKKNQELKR

O7-bH = molecular target: T7, O7-bH; experiment: two-hybrid library CCNG1
T7 chain: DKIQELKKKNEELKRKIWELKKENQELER

O13-bH = molecular target: T8, O13-bH; experiment: two-hybrid library CCNG1
T8 chain: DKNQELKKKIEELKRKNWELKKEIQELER

O4-bH = molecular target: T9, O4-bH; experiment: two-hybrid library CCNG1
T9 chain: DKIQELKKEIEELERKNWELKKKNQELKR

O8-bH = molecular target: T10, O8-bH; experiment: two-hybrid library CCNG1
T10 chain: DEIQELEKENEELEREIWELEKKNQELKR

O2-bH = molecular target: T11, O2-bH; experiment: two-hybrid library CCNG1
T11 chain: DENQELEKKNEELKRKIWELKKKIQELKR

O9-bH = molecular target: T12, O9-bH; experiment: two-hybrid library CCNG1
T12 chain: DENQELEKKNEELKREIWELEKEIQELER

O6-bH = molecular target: T13, O6-bH; experiment: two-hybrid library CCNG1
T13 chain: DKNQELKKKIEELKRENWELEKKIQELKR

4H3354-AA = molecular target: T14, 4H3354-AA; experiment: two-hybrid library CCmax; conditions: mean of both orientations
T14 chain: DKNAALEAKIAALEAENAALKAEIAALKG

4H3855-AA = molecular target: T15, 4H3855-AA; experiment: two-hybrid library CCmax; conditions: mean of both orientations
T15 chain: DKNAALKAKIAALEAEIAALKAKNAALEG

4H918-AA = molecular target: T16, 4H918-AA; experiment: two-hybrid library CCmax; conditions: mean of both orientations
T16 chain: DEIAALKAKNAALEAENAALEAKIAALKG

4H3112-AA = molecular target: T17, 4H3112-AA; experiment: two-hybrid library CCmax; conditions: mean of both orientations
T17 chain: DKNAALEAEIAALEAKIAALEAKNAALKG

4H4001-AA = molecular target: T18, 4H4001-AA; experiment: two-hybrid library CCmax; conditions: mean of both orientations
T18 chain: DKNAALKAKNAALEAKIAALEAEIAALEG

4H797-AA = molecular target: T19, 4H797-AA; experiment: two-hybrid library CCmax; conditions: mean of both orientations
T19 chain: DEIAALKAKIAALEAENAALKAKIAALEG

4H967-AA = molecular target: T20, 4H967-AA; experiment: two-hybrid library CCmax; conditions: mean of both orientations
T20 chain: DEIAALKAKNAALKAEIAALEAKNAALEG

4H953-AA = molecular target: T21, 4H953-AA; experiment: two-hybrid library CCmax; conditions: mean of both orientations
T21 chain: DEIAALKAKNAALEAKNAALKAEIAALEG

4H883-AA = molecular target: T22, 4H883-AA; experiment: two-hybrid library CCmax; conditions: mean of both orientations
T22 chain: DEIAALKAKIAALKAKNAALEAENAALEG

4H3782-AA = molecular target: T23, 4H3782-AA; experiment: two-hybrid library CCmax; conditions: mean of both orientations
T23 chain: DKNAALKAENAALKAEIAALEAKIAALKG

4H717-AA = molecular target: T24, 4H717-AA; experiment: two-hybrid library CCmax; conditions: mean of both orientations
T24 chain: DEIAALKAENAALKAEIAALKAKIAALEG

4H687-AA = molecular target: T25, 4H687-AA; experiment: two-hybrid library CCmax; conditions: mean of both orientations
T25 chain: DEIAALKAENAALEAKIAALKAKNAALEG

4H568-AA = molecular target: T26, 4H568-AA; experiment: two-hybrid library CCmax; conditions: mean of both orientations
T26 chain: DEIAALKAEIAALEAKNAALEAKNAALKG

4H2442-AA = molecular target: T27, 4H2442-AA; experiment: two-hybrid library CCmax
T27 chain: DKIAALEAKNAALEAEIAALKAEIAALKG

4H3427-AA = molecular target: T28, 4H3427-AA; experiment: two-hybrid library CCmax; conditions: mean of both orientations
T28 chain: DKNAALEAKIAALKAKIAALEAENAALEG

P8SH = molecular target: T29, P8SH; experiment: two-hybrid library CCNG1
T29 chain: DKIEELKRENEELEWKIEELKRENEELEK

P7SH = molecular target: T30, P7SH; experiment: two-hybrid library CCNG1
T30 chain: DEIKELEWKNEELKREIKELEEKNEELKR

P6SH = molecular target: T31, P6SH; experiment: two-hybrid library CCNG1
T31 chain: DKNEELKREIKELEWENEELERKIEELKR

4H3381-AA = molecular target: T32, 4H3381-AA; experiment: two-hybrid library CCmax; conditions: mean of both orientations
T32 chain: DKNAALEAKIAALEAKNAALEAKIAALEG

4H3493-AA = molecular target: T33, 4H3493-AA; experiment: two-hybrid library CCmax
T33 chain: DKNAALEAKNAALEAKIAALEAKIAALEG

4H688-AA = molecular target: T34, 4H688-AA; experiment: two-hybrid library CCmax; conditions: mean of both orientations
T34 chain: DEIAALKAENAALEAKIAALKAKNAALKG

4H249-AA = molecular target: T35, 4H249-AA; experiment: two-hybrid library CCmax; conditions: mean of both orientations
T35 chain: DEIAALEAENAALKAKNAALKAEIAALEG

4H2592-AA = molecular target: T36, 4H2592-AA; experiment: two-hybrid library CCmax; conditions: mean of both orientations
T36 chain: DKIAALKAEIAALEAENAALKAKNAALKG

4H2774-AA = molecular target: T37, 4H2774-AA; experiment: two-hybrid library CCmax; conditions: mean of both orientations
T37 chain: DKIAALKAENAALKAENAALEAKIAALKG

4H3001-AA = molecular target: T38, 4H3001-AA; experiment: two-hybrid library CCmax; conditions: mean of both orientations
T38 chain: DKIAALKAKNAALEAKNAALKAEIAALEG

4H376-AA = molecular target: T39, 4H376-AA; experiment: two-hybrid library CCmax; conditions: mean of both orientations
T39 chain: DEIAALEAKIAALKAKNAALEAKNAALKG

4H2504-AA = molecular target: T40, 4H2504-AA; experiment: two-hybrid library CCmax; conditions: mean of both orientations
T40 chain: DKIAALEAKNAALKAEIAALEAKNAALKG

4H3340-AA = molecular target: T41, 4H3340-AA; experiment: two-hybrid library CCmax; conditions: mean of both orientations
T41 chain: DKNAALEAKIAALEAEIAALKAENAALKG

4H963-AA = molecular target: T42, 4H963-AA; experiment: two-hybrid library CCmax; conditions: mean of both orientations
T42 chain: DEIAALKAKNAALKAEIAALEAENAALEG

4H2219-AA = molecular target: T43, 4H2219-AA; experiment: two-hybrid library CCmax
T43 chain: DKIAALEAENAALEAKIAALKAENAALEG

4H347-AA = molecular target: T44, 4H347-AA; experiment: two-hybrid library CCmax; conditions: mean of both orientations
T44 chain: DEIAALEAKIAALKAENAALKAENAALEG

4H406-AA = molecular target: T45, 4H406-AA; experiment: two-hybrid library CCmax; conditions: mean of both orientations
T45 chain: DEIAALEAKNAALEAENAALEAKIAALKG

4H2611-AA = molecular target: T46, 4H2611-AA; experiment: two-hybrid library CCmax; conditions: mean of both orientations
T46 chain: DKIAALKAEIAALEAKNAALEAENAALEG

4H3907-bA = molecular target: T47, 4H3907-bA; experiment: two-hybrid library CCNG1
T47 chain: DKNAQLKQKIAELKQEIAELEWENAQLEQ

4H2134-bA = molecular target: T48, 4H2134-bA; experiment: two-hybrid library CCNG1
T48 chain: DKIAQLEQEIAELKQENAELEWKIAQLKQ

4H3592-bA = molecular target: T49, 4H3592-bA; experiment: two-hybrid library CCNG1
T49 chain: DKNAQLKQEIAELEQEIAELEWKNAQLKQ

4H1406-bA = molecular target: T50, 4H1406-bA; experiment: two-hybrid library CCNG1
T50 chain: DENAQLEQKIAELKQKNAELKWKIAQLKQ

4H4038-bA = molecular target: T51, 4H4038-bA; experiment: two-hybrid library CCNG1
T51 chain: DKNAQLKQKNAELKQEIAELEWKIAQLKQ

4H3601-bA = molecular target: T52, 4H3601-bA; experiment: two-hybrid library CCNG1
T52 chain: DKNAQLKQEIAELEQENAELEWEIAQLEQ

O11-bH = molecular target: T53, O11-bH; experiment: two-hybrid library CCNG1
T53 chain: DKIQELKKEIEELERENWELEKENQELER

interaction score (O5-bH): -1.26
interaction score (O14-bH): -1.38
interaction score (O15-bH): 0.483
interaction score (O16-bH): -0.436
interaction score (O3-bH): 1.56
interaction score (O12-bH): 0.775
interaction score (O7-bH): -0.37
interaction score (O13-bH): 0.332
interaction score (O4-bH): 1.12
interaction score (O8-bH): 1.12
interaction score (O2-bH): -1.26
interaction score (O9-bH): 0.102
interaction score (O6-bH): 0.619
B1: O12-bH (peptide)
chain: DEIQELEKKIEELKRKNWELKKKNQELKR

interaction score (4H3354-AA): -1.37
interaction score (4H3855-AA): -1.56
interaction score (4H918-AA): -1.29
interaction score (4H3112-AA): -1.4
interaction score (4H4001-AA): -2.06
interaction score (4H797-AA): -1.52
interaction score (4H967-AA): -2.2
interaction score (4H953-AA): -1.67
interaction score (4H883-AA): -1.82
interaction score (4H3782-AA): -1.14
interaction score (4H717-AA): -1.4
interaction score (4H687-AA): -1.85
interaction score (4H568-AA): -1.38
interaction score (4H2442-AA): 1.97
interaction score (4H3427-AA): -1.52
B2: 4H2442-AA (peptide)
chain: DKIAALEAKNAALEAEIAALKAEIAALKG

interaction score (P8SH): 0.565
interaction score (P7SH): 0.762
interaction score (P6SH): 0.574
B3: P6SH (peptide)
chain: DKNEELKREIKELEWENEELERKIEELKR

interaction score (4H3381-AA): -1.13
interaction score (4H3493-AA): -1.56
interaction score (4H688-AA): -0.493
interaction score (4H249-AA): -1.35
interaction score (4H2592-AA): -0.491
interaction score (4H2774-AA): -0.727
interaction score (4H3001-AA): -0.483
interaction score (4H376-AA): -1.64
interaction score (4H2504-AA): 2.21
interaction score (4H3340-AA): -1.39
interaction score (4H963-AA): 0.45
interaction score (4H2219-AA): -1.21
interaction score (4H347-AA): -1.36
interaction score (4H406-AA): -1.81
interaction score (4H2611-AA): -1.33
B4: 4H2219-AA (peptide)
chain: DKIAALEAENAALEAKIAALKAENAALEG

interaction score (4H3907-bA): 0.571
interaction score (4H2134-bA): 1.62
interaction score (4H3592-bA): 0.233
interaction score (4H1406-bA): -0.836
interaction score (4H4038-bA): -0.125
interaction score (4H3601-bA): 1.83
B5: 4H1406-bA (peptide)
chain: DENAQLEQKIAELKQKNAELKWKIAQLKQ

interaction score (O5-bH): -3.76
interaction score (O14-bH): -0.342
interaction score (O15-bH): -0.515
interaction score (O16-bH): -0.352
interaction score (O11-bH): -0.129
interaction score (O3-bH): 0.233
interaction score (O12-bH): 1.01
interaction score (O7-bH): 0.102
interaction score (O13-bH): -0.515
interaction score (O4-bH): 1.29
interaction score (O8-bH): -0.273
interaction score (O2-bH): -1.24
interaction score (O9-bH): -1.15
interaction score (O6-bH): -0.451
B6: O11-bH (peptide)
chain: DKIQELKKEIEELERENWELEKENQELER
